B1: Azoarcus group I ribozyme (parent)
chain: GUGCCUUGCGCCGGGAAACCACGCAAGGGAUGGUGUCAAAUUCGGCGAAACCUAAGCGCCCGCCCGGGCGUAUGGCAACGCCGAGCCAAGCUUCGGCGCCUGCGCCGAUGAAGGUGUAGAGACUAGACGGCACCCACCUAAGGCAAACGCUAUGGUGAAGGCAUAGUCCAGGGAGUGGCGAAAGUCACACAAACCGG

Variants of: B1
Test: reverse-splicing fitness (ratio to wild type); higher = more active; in vitro selection; Mg2+ level not given
In short: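 An in vitro group I ribozyme library with randomized positions was T7-transcribed and gel-purified. In triplicate, 10 pmol RNA in EPPS pH 7.5 was reacted with 50 pmoles of a 30-nt RNA substrate for 1 h at 37 °C across several added MgCl2 levels (1–48 mM), then stopped with EDTA. Products were reverse transcribed from a substrate-complementary primer, PCR-amplified and sequenced (HiSeq 4000). Fitness is a variant's read proportion after selection over that before, normalised to wild type.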

Variant | reverse-splicing fitness
GUGCCUUGCGCCGGGAAACCACGCAAGGGAUGGUGUCAAAUUCGGCGAAACCUAAGCGCCCGCCCGGGCGUAUGGCAACGCGGAGCCAAGCUUCGGCGCCUGCGCCGAUGGAGGUGUAGCGACUAGACGGCACCCACCUAAGGCUAACGUUAUGGUGAAGGCAUAGUCCAGGGAGUGGCGAAAGUCACACAAACCGG [C82G A111G A120C A145U C150U] | 0.0494
GUGCCUUGCGCCGGGAAACCACGCAAGGGAUGGUGUCAAAUUCGGCGAAACCUAAGCGCCCGCCCGGGCGUAUGGCAACGCGGAGCCAAGCUUCGGCGCCUGCGCCGAUGGAGGUGUAGCGACUAGACGGCACCCACCUAAGGCUAACGUUAUGGUGAAGGCAUAGUCGAGGGAGUGGCGAAAGUCACACAAACCGG [C82G A111G A120C A145U C150U C169G] | 0.0094
GUGCCUUGCGCCGGGAAACCACGCAAGGGAUGGUGUCAAAUUCGGCGAAACCUAAGCGCCCGCCCGGGCGUAUGGCAACGCGGAGCCAAGCUUCGGCGCCUGCGCCGAUGGAGGUGUAGCGACUAGACGGCACCCACCUAAGGCUAACGUUAUGGUGAAGGCAUAGUCAAGGGAGUGGCGAAAGUCACACAAACCGG [C82G A111G A120C A145U C150U C169A] | 0.01
GUGCCUUGCGCCGGGAAACCACGCAAGGGAUGGUGUCAAAUUCGGCGAAACCUAAGCGCCCGCCCGGGCGUAUGGCAACGCGGAGCCAAGCUUCGGCGCCUGCGCCGAUGGAGGUGUAGCGACUAGACGGCACCCACCUAAGGCUAACGUUAUGGUGAAGGCAUAGUCUAGGGAGUGGCGAAAGUCACACAAACCGG [C82G A111G A120C A145U C150U C169U] | 0.0124
GUGCCUUGCGCCGGGAAACCACGCAAGGGAUGGUGUCAAAUUCGGCGAAACCUAAGCGCCCGCCCGGGCGUAUGGCAACGCGGAGCCAAGCUUCGGCGCCUGCGCCGAUGGAGGUGUAGCGACUAGACGGCACCCACCUAAGGCUAACGUUAUGGUGAAGGCAUAGUCUAGGGAGAGGCGAAAGUCACACAAACCGG [C82G A111G A120C A145U C150U C169U U176A] | 0.0143
GUGCCUUGCGCCGGGAAACCACGCAAGGGAUGGUGUCAAAUUCGGCGAAACCUAAGCGCCCGCCCGGGCGUAUGGCAACGCGGAGCCAAGCUUCGGCGCCUGCGCCGAUGGAGGUGUAGCGACUAGACGGCACCCACCUAAGGCUAACGUUAUGGUGAAGGCAUAGUCAAGGGAGAGGCGAAAGUCACACAAACCGG [C82G A111G A120C A145U C150U C169A U176A] | 0.0171
GUGCCUUGCGCCGGGAAACCACGCAAGGGAUGGUGUCAAAUUCGGCGAAACCUAAGCGCCCGCCCGGGCGUAUGGCAACGCGGAGCCAAGCUUCGGCGCCUGCGCCGAUGGAGGUGUAGCGACUAGACGGCACCCACCUAAGGCUAACGUUAUGGUGAAGGCAUAGUCAAGGGAGGGGCGAAAGUCACACAAACCGG [C82G A111G A120C A145U C150U C169A U176G] | 0.00592
GUGCCUUGCGCCGGGAAACCACGCAAGGGAUGGUGUCAAAUUCGGCGAAACCUAAGCGCCCGCCCGGGCGUAUGGCAACGCGGAGCCAAGCUUCGGCGCCUGCGCCGAUGGAGGUGUAGCGACUAGACGGCACCCACCUAAGGCUAACGUUAUGGUGAAGGCAUAGUCAAGGGAGCGGCGAAAGUCACACAAACCGG [C82G A111G A120C A145U C150U C169A U176C] | 0.0137
GUGCCUUGCGCCGGGAAACCACGCAAGGGAUGGUGUCAAAUUCGGCGAAACCUAAGCGCCCGCCCGGGCGUAUGGCAACGCGGAGCCAAGCUUCGGCGCCUGCGCCGAUGGAGGUGUAGCGACUAGACGGCACCCACCUAAGGCUAACGUUAUGGUGAAGGCAUAGUCGAGGGAGAGGCGAAAGUCACACAAACCGG [C82G A111G A120C A145U C150U C169G U176A] | 0.0171
GUGCCUUGCGCCGGGAAACCACGCAAGGGAUGGUGUCAAAUUCGGCGAAACCUAAGCGCCCGCCCGGGCGUAUGGCAACGCGGAGCCAAGCUUCGGCGCCUGCGCCGAUGGAGGUGUAGCGACUAGACGGCACCCACCUAAGGCUAACGUUAUGGUGAAGGCAUAGUCGAGGGAGGGGCGAAAGUCACACAAACCGG [C82G A111G A120C A145U C150U C169G U176G] | 0.00596
GUGCCUUGCGCCGGGAAACCACGCAAGGGAUGGUGUCAAAUUCGGCGAAACCUAAGCGCCCGCCCGGGCGUAUGGCAACGCGGAGCCAAGCUUCGGCGCCUGCGCCGAUGGAGGUGUAGCGACUAGACGGCACCCACCUAAGGCUAACGUUAUGGUGAAGGCAUAGUCGAGGGAGCGGCGAAAGUCACACAAACCGG [C82G A111G A120C A145U C150U C169G U176C] | 0.0179
GUGCCUUGCGCCGGGAAACCACGCAAGGGAUGGUGUCAAAUUCGGCGAAACCUAAGCGCCCGCCCGGGCGUAUGGCAACGCGGAGCCAAGCUUCGGCGCCUGCGCCGAUGGAGGUGUAGCGACUAGACGGCACCCACCUAAGGCUAACGGUAUGGUGAAGGCAUAGUCUAGGGAGGGGCGAAAGUCACACAAACCGG [C82G A111G A120C A145U C150G C169U U176G] | 0.00604
GUGCCUUGCGCCGGGAAACCACGCAAGGGAUGGUGUCAAAUUCGGCGAAACCUAAGCGCCCGCCCGGGCGUAUGGCAACGCGGAGCCAAGCUUCGGCGCCUGCGCCGAUGGAGGUGUAGCGACUAGACGGCACCCACCUAAGGCUAACGGUAUGGUGAAGGCAUAGUCCAGGGAGGGGCGAAAGUCACACAAACCGG [C82G A111G A120C A145U C150G U176G] | 0.00435
GUGCCUUGCGCCGGGAAACCACGCAAGGGAUGGUGUCAAAUUCGGCGAAACCUAAGCGCCCGCCCGGGCGUAUGGCAACGCGGAGCCAAGCUUCGGCGCCUGCGCCGAUGGAGGUGUAGCGACUAGACGGCACCCACCUAAGGCUAACGGUAUGGUGAAGGCAUAGUCCAGGGAGAGGCGAAAGUCACACAAACCGG [C82G A111G A120C A145U C150G U176A] | 0.00634
GUGCCUUGCGCCGGGAAACCACGCAAGGGAUGGUGUCAAAUUCGGCGAAACCUAAGCGCCCGCCCGGGCGUAUGGCAACGCGGAGCCAAGCUUCGGCGCCUGCGCCGAUGGAGGUGUAGCGACUAGACGGCACCCACCUAAGGCUAACGGUAUGGUGAAGGCAUAGUCCAGGGAGCGGCGAAAGUCACACAAACCGG [C82G A111G A120C A145U C150G U176C] | 0.0121

— the RNAGym collection of RNA variant scans (doi:10.1093/molbev/msab373)
